Laboratory results: publication PMC3164674

Biological target: MUC1 (mucin 1) on the surface of MCF-7 cells (human (MCF-7 breast cancer cell line)) (UniProt P15941)
Experiment: flow cytometry on cells
Details: 300 nM DNA; 5 mM Mg2+; MUC1+ MCF-7 vs MUC1- HepG2; S2.2 with 48-nt DNA spacer at 3' end; 100 mM NaCl, 5 mM MgCl2, pH 7.2, 300 nM DNA, 30 min; temperature not stated

Chain of UniProt P15941 (P15941 whole entry): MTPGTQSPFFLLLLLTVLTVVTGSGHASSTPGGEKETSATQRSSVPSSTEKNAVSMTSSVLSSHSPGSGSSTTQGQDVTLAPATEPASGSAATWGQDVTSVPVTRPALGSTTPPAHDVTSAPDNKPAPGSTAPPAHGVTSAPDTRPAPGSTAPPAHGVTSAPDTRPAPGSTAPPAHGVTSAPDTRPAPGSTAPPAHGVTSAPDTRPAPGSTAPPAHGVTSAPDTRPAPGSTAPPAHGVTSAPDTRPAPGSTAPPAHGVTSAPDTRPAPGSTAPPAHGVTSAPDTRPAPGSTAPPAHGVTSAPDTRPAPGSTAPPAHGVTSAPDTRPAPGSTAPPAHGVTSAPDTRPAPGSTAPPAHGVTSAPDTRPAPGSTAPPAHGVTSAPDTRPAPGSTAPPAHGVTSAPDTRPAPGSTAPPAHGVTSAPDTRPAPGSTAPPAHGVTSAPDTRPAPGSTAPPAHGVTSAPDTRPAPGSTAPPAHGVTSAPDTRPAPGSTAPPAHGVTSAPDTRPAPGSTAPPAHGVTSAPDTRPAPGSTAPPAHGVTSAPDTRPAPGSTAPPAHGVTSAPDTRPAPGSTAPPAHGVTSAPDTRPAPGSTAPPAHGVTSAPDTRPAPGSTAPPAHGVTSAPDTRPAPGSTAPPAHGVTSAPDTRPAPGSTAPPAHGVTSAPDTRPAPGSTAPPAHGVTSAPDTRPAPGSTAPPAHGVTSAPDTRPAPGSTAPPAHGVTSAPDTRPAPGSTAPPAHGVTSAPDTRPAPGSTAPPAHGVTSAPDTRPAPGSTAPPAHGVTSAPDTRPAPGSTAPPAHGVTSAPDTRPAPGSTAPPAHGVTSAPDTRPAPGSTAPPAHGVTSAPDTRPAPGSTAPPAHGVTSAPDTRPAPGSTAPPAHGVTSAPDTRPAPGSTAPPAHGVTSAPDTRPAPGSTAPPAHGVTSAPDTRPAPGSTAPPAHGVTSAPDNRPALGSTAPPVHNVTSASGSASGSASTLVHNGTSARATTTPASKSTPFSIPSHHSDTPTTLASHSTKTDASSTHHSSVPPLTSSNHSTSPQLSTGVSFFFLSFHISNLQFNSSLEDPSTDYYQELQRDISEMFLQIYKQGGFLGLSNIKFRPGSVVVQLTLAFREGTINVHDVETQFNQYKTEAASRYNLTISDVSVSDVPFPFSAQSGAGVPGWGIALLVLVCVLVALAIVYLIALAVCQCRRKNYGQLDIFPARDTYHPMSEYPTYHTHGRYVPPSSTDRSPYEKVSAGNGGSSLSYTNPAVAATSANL

GCAGTTGATCCTTTGGATACCCTGGTTCCCTTCCTTCTCTCTTCCTCTCTCCTTCTCTCTTCCTCTCTCCTTC [S2.2-spacer]
binding signal (fold (mean fluorescence MCF-7/HepG2)): 3.5
